Residue numbers refer to the chain shown, from its start. Numbers in names are those of the source.
B1: H18Y/E35D/M47L/A71G/A91S (protein)
chain: VIHVTKEVKEVATLSCGYNVSVEELAQTRIYWQKDKKMVLTMMSGDLNIWPEYKNRTIFDITNNLSIVILGLRPSDEGTYECVVLKYEKDSFKREHLAEVTLSVKAD
B2: E35D/M47V (protein)
chain: B1 chain with Y18H, L47V, G71A, S91A
B3: M43I/M47L/A71G (protein)
chain: B1 chain with Y18H, D35E, M43I, S91A
B4: E35D/M47L/A71G/L85M (protein)
chain: B1 chain with Y18H, L85M, S91A
B5: V22A/E35D/M47L/A71G (protein)
chain: B1 chain with Y18H, V22A, S91A
B6: E35D/M47I/N48K/I61F (protein)
chain: B1 chain with Y18H, L47I, N48K, I61F, G71A, S91A
B7: E35D/D46E/M47I (protein)
chain: B1 chain with Y18H, D46E, L47I, G71A, S91A

Biological target: huCTLA4 (Homo sapiens, UniProt P16410)
Sequence (P16410 36-223): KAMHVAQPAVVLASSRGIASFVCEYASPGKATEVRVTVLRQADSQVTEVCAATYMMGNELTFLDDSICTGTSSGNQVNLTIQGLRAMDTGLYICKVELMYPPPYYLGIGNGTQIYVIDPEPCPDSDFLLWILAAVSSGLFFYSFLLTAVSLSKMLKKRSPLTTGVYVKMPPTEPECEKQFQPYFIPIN
Assay: Flow binding to CHO cells stably expressing CTLA4
Parameters: huCTLA4 and huPD-L1, full-length mammalian surface expression constructs were generated; expressed in transfected cells; host or cells: CHO cells, lentiviral transduction, sorted to >98% purity
Conditions: Table E10; 33.3 nM; CHO cells stably expressing CTLA4
How it was run: (§1)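 Binding EC50 and PE mean fluorescence intensity derived by flow cytometry using PE-labelled anti-human Fc secondary. Target cells were CTLA4- or PD-L1-transfected CHO lines and CD28-expressing Jurkat/IL2 reporter cells, stained with fusion proteins on ice for 45 min following BSA blocking.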

CTLA4 MFI at 33.3 nM | Molecule
24218 | B1
20893 | B2
23292 | B3
16609 | B4
21855 | B5
25859 | B6
21394 | B7

Same assay, conditions: Table E10; 33.3 nM; relative to CD80 WT IgV-Fc

CTLA4 Fold change to WT CD80 | Molecule
12.6 | B1
10.9 | B2
12.2 | B3
8.7 | B4
11.4 | B5
13.5 | B6
11.2 | B7

Same assay, conditions: Table E19; CHO cells stably expressing CTLA4; 33.3 nM

CTLA4 MFI at 33.3 nM | Molecule
44569 | B2

Same assay, conditions: Table E19; MFI at 33.3 nM relative to WT CD80 ECD-Fc (Abcam)

CTLA4 Fold change to WT CD80 [fold] | Molecule
1.1 | B2

Biological target: huPD-L1 (Homo sapiens, UniProt Q9NZQ7)
Sequence (Q9NZQ7 19-290): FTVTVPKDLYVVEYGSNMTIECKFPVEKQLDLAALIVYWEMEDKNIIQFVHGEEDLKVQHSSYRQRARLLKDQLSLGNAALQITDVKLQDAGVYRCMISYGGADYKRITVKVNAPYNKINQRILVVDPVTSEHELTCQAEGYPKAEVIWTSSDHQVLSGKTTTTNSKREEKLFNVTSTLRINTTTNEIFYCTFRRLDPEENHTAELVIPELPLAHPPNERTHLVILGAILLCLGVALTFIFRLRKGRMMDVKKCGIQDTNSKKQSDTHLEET
Assay: Flow binding to CHO cells stably expressing PD-L1
Parameters: huCTLA4 and huPD-L1, full-length mammalian surface expression constructs were generated; expressed in transfected cells; host or cells: CHO cells, lentiviral transduction, sorted to >98% purity
Conditions: Table E10; 33.3 nM; CHO cells stably expressing PD-L1
How it was run: as §1

PD-L1 MFI at 33.3 nM | Molecule
7582 | B1
2935 | B2
7763 | B3
8312 | B4
8168 | B5
5627 | B6
3789 | B7

Same assay, conditions: Table E10; 33.3 nM; relative to CD80 WT IgV-Fc

PD-L1 Fold change to WT CD80 | Molecule
107.9 | B1
41.7 | B2
110.4 | B3
118.2 | B4
116.2 | B5
80.0 | B6
53.9 | B7

Same assay, conditions: Table E10; binding to PD-L1 compared to binding to CD28

Ratio of PDL1:CD28 | Molecule
14 | B1
6 | B2
8 | B3
42 | B4
8 | B5
7 | B6
4 | B7

Same assay, conditions: Table E19; CHO cells stably expressing PD-L1; 33.3 nM

PD-L1 MFI at 33.3 nM | Molecule
6796 | B2

Same assay, conditions: Table E19; MFI at 33.3 nM relative to WT CD80 ECD-Fc (Abcam)

PD-L1 Fold change to WT CD80 [fold] | Molecule
53.1 | B2

Same assay, conditions: Table E19; ratio of MFI at 33.3 nM

Ratio of PDL1:CD28 | Molecule
13.6 | B2

Biological target: T1, CD28 (Homo sapiens, UniProt P10747)
Assay: Flow binding to Jurkat/IL2 reporter cells (CD28)
Parameters: host or cells: Jurkat cells expressing an IL-2-luciferase reporter
Conditions: Table E10; 33.3 nM; Jurkats (CD28)
How it was run: as §1

CD28 MFI at 33.3 nM | Molecule
528 | B1
461 | B2
1000 | B3
199 | B4
990 | B5
816 | B6
1001 | B7

Same assay, conditions: Table E10; 33.3 nM; relative to CD80 WT IgV-Fc

CD28 Fold change to WT CD80 | Molecule
8.0 | B1
7.0 | B2
15.2 | B3
3.0 | B4
15.0 | B5
12.4 | B6
15.2 | B7

Same assay, conditions: Table E19; Jurkats (CD28); 33.3 nM

CD28 MFI at 33.3 nM | Molecule
501 | B2

Same assay, conditions: Table E19; MFI at 33.3 nM relative to WT CD80 ECD-Fc (Abcam)

CD28 Fold change to WT CD80 [fold] | Molecule
0.7 | B2

Biological target: T1, CD28
Assay: Jurkat/IL2 + CHO/OKT3 +/- PD-L1 reporter assay: PD-L1-dependent CD28 costimulation
Assay type: cell-based
Parameters: host or cells: Jurkat cells expressing an IL-2-luciferase reporter
Conditions: Table E12; Jurkat/IL2 + CHO/OKT3/PD-L1; 5.0 nM
How it was run: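 Readout is relative luminescence from lysed cocultures: test protein given 15 min at room temperature to Jurkat cells before adding CHO artificial APCs displaying OKT3 alone or OKT3 plus PD-L1, then 5 h at 37 °C, 5% CO2.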

Fold Increase over WT CD80-IgV-Fe | Relative Luciferase Units (RLU), CD80 Cone 5.0 nM [RLU] | Molecule
4.7 | 1898 | B1
3.4 | 1353 | B2
4.1 | 1641 | B3
3.8 | 1513 | B4
6.5 | 2583 | B5
5.2 | 2078 | B6
4.8 | 1915 | B7

Same assay, conditions: Table E21; Jurkat/IL2 + CHO/OKT3/PD-L1; 5.0 nM

Fold Increase over WT CD80-IgV-Fe [fold] | Molecule
4.7 | B2

Same assay, conditions: Table E21; Jurkat/IL2 + CHO/OKT3/PD-L1; CD80 Conc 5.0 nM

Relative Luciferase Units (RLU), CD80 Conc 5.0 nM [RLU] | Molecule
543 | B2

— US20220177587A1, “METHODS AND USES OF VARIANT CD80 FUSION PROTEINS AND RELATED CONSTRUCTS” (Alpine Immune Sciences, Inc., priority 2018, published 2022)
